Assay: soluble on expression in E. coli; label from the status in PepcDB or PDB records

| Sequence | soluble on expression in E. coli |
| --- | --- |
| AAAAAAMTMMDMNFKYCHKIMKKHSKSFSYAFDLLPEDQRKAVWAIYAVCRKIDDSIDVYGDIQFLNQIKEDIQSIEKYPYEYHHFQSDRRIMMALQHVAQHKNIAFQSFYNLIDTVYKDQHFTMFETDAELFGYCYGVAGTVGEVLTPILSDHETHQTYDVARRLGESLQLINILRDVGEDFENERIYFSKQRLKQYEVDIAEVYQNGVNNHYIDLWEYYAAIAEKDFRDVMDQIKVFSIEAQPIIELAARIYIEILDEVRQANYTLHERVFVEKRKKAKLFHEINSKYHRI | soluble |
| AADITVASYNIHKGVGTDRRRDLRRTAAVIAELDADLVALQEADRRFGDRAGLLDLEHLKDETGLVPVKVEGRGRAHGWHGNLLLVRDAEVEEVQKIVLPSFEPRGALMIDMMIRGRPLRVIAAHLGLLPASRAAQTRHLLERIEASTPRPTLLMGDLNEWRGTGAAMGHLARHFTGGVMVRSFPSRFPILALDRLMTCKHGQLHDVSTHDTPLARRASDHLPIKARLHLP | not soluble |
| AALPDSVDWREKGCVTEVKYQGSCGASWAFSAVGALEAQLKLKTGKLVSLSAQNLVDCSTEKYGNKGCNGGFMTTAFQYIIDNKGIDSDASYPYKAMDQKCQYDSKYRAATCSKYTELPYGREDVLKEAVANKGPVSVGVDARHPSFFLYRSGVYYEPSCTQNVNHGVLVVGYGDLNGKEYWLVKNSWGHNFGEEGYIRMARNKGNHCGIASFPSYPEILQG | soluble |
| AARRALIVLAHSEKTSFNYAMKEAAVEALKKRGWEVLESDLYAMNFNPIISRNDITGELKDSKNFQYPSESSLAYKEGRLSPDIVAEHKKLEAADLVIFQFPLQWFGVPAILKGWFERVLVAGFAYTYAAMYDNGPFQNKKTLLSITTGGSGSMYSLQGVHGDMNVILWPIQSGILRFCGFQVLEPQLVYSIGHTPPDARMQILEGWKKRLETVWEETPLYFAPSSLFDLNFQAGFLLMKEVQEEQKKNKFGLSVGHHLGKSIPADNQIKARK | soluble |
| AASSLDELVALCKRRGFIFQSSEIYGGLQGVYDYGPLGVELKNNLKQAWWRRNVYERDDMEGLDASVLTHRLVLHYSGHEATFADPMVDNAKARYWTPPRYFNMMFQDLRGPRGGRGLLAYLRPETAQGIFVNFKNVLDATSRKLGFGIAQIGKAFRNEITPRNFIFRVREFEQMEIEYFVRPGEDEYWHRYWVEERLKWWQEMGLSRENLVPYQQPPESSAHYAKATVDILYRFPHGSLELEGIAQRTDFDLGSHTKDQEALGITARVLRNEHSTQRLAYRDPETGKWFVPYVIEPSAGVDRGVLALLAEAFTREELPNGEERIVLKLKPQLAPIKVAVIPLVKNRPEITEYAKRLKARLLALGLGRVLYEDTGNIGKAYRRHDEVGTPFAVTVDYDTIGQSKDGTTRLKDTVTVRDRDTMEQIRLHVDELEGFLRERLRW | soluble |
| AAYEAELLGRVGLMSHLTRRLHESAKLNPHRVIYAACENPSVLKAAVSARAHGIARPIMLGDEKQIRDFAAELDLSLEGIEIVNYRSDEEKARRHHYARVFAEQNWRRGGNHTEALDKMFDPNYFGMMMVRLGDADAMITGIYSKHSYLAEVAKQTVGLQEGVGHFATMHMVSLKNGPLFLADTLINHNLSAEALVDIAVMAYEKAHCFGVKPVLAIVGFSDFGADSDADSTVEAAKAVAILHEKYPYILVDGEMRVSLALHAEKRDKQYPQNKIKGRNANVLIFPRLSAANACYQLLREADDAEEVLGPIQIGLAKPVYFADHDATVSDILNITAMAVLDSHACLI | soluble |
| ADFDYVVVGAGNAGNVVAARLTEDPDVSVLVLEAGVSDENVLGAEAPLLAPGLVPNSIFDWNYTTTAQAGYNGRSIAYPRGRMLGGSSSVHYMVMMRGSTEDFDRYAAVTGDEGWNWDNIQQFVRKNEMVVPPADNHNTSGEFIPAVHGTNGSVSISLPGFPTPLDDRVLATTQEQSEEFFFNPDMGTGHPLGISWSIASVGNGQRSSSSTAYLRPAQSRPNLSVLINAQVTKLVNSGTTNGLPAFRCVEYAEQEGAPTTTVCAKKEVVLSAGSVGTPILLQLSGIGDENDLSSVGIDTIVNNPSVGRNLSDHLLLPAAFFVNSNQTFDNIFRDSSEFNVDLDQWTNTRTGPLTALIANHLAWLRLPSNSSIFQTFPDPAAGPNSAHWETIFSNQWFHPAIPRPDTGSFMSVTNALISPVARGDIKLATSNPFDKPLINPQYLSTEFDIFTMIQAVKSNLRFLSGQAWADFVIRPFDPRLRDPTDDAAIESYIRDNANTIFHPVGTASMSPRGASWGVVDPDLKVKGVDGLRIVDGSILPFAPNAHTQGPIYLVGKQGADLIKADQ | soluble |
| ADKLRAACIRIQKTIRGWLLRKRYLCMQRAAITVQRYVRGYQARCYAKFLRRTKAATT | soluble |
| ADTMTFTAKNGNVTFDHKKHQTIVPDCAVCHGKTPGKIEGFGKEMAHGKSCKGCHEEMKKGPTKCGECHKK | soluble |
| ADTYAATRYPVILVHGLAGTDKFANVVDYWYGIQSDLQSHGAKVYVANLSGFQSDDGPNGRGEQLLAYVKQVLAATGATKVNLIGHSQGGLTSRYVAAVAPQLVASVTTIGTPHRGSEFADFVQDVLKTDPTGLSSTVIAAFVNVFGTLVSSSHNTDQDALAALRTLTTAQTATYNRNFPSAGLGAPGSCQTGAATETVGGSQHLLYSWGGTAIQPTSTVLGVTGATDTSTGTLDVANVTDPSTLALLATGAVMINRASGQNDGLVSRCSSLFGQVISTSYHWNHLDEINQLLGVRGANAEDPVAVIRTHVNRLKLQGV | soluble |
| AEPDQAPELNEAQREAVDTIGALSAFQPVLLHGVTGSGKTEVYLHAAARVLQAGRQVLLMVPEINLTPQLEGALRARLEALVGPQGVAILHSGLADGERVQAWARAQRGQARLLLGTRMSIFAPLPELGLIVVDEEHDPSYKQQEGLRYSARDLAIWRARDLDIPVVLGSATP | not soluble |
| AESLPDLKIEKLDEGVYVHTSFEEVNGWGVVPKHGLVVLVNAEAYLIDTPFTAKDTEKLVTWFVERGYKIKGSISSHFHSASTGGIEWLNSRSIPTYASELTNELLKKDGKVQATNSFSGVNYWLVKNKIEVFYPGPGHTPDNVVVWLPERKILFGGCFIKPYGLGNLGDANIEAWPKSAKLLKSKYGKAKLVVPSHSEVGDASLLKLTLEQAVKGLNESKKPSKPSN | soluble |
| AESTLGAAAAQSGRYFGTAIASGKLGDSAYTTIASREFNMVTAENEMKIDATEPQRGQFNFSAGDRVYNWAVQNGKQVRGHTLAWHSQQPGWMQSLSGSTLRQAMIDHINGVMGHYKGKIAQWDVVSHAFSDDGSGGRRDSNLQRTGNDWIEVAFRTARAADPAAKLCYNDYNIENWTWAKTQGVYNMVRDFKQRGVPIDCVGFQSHFNSGSPYNSNFRTTLQNFAALGVDVAITELDIQGASSSTYAAVTNDCLAVSRCLGITVWGVRDTDSWRSGDTPLLFNGDGSKKAAYTAVLNALNGGSSTPPPSGGGQIKGVGSGRCLDVPNASTTDGTQVQLYDCHSATNQQWTYTDAGELRVYGDKCLDAAGTGNGTKVQIYSCWGGDNQKWRLNSDGSIVGVQSGLCLDAVGGGTANGTLIQLYSCSNGSNQRWTRT | soluble |
| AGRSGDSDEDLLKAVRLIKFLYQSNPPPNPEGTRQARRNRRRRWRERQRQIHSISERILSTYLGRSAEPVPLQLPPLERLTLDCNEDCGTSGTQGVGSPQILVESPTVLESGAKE | soluble |
| AGTKLSLMPWFHGKITREQAERLLYPPETGLFLVRESTNYPGDYTLCVSSDGKVEHYRIMYHASKLSIDEEVYFENLMQLVEHYTSDADGLCTRLIKPKVMEGTVA | soluble |
| AHHHHHHGSAESPFKADIERAQKELSEKMTPGAIVYIPGSSVINKTGSWRVFKPEFNRDKCVRCYLCYIYCPEPAIYLDEEGYPVFDYDYCKGCGICANECPTKAIEMVREVK | not soluble |
| AHHHHHHGSETEEIEAPKKKVPLAMVTIRPAKLFDIPYIMRIEQMSFKEAYPRGLFLTFLEANPDTFLVAEYNGKIVGYVMGYLRPDMEGHIMSIAVHPDYRGNGIGKALMIAVIKKLFEKGARWIGLEVRVSNYRAINLYKKLGFKIVKRIISYYSDGEDAYYMILRPEDFERVILS | not soluble |
| AHHHHHHGSIDLILLAGKLKRIPRMGWLIKGVPNPESVADHSYRVAFITLLLAEELKKKGVEIDVEKALKIAIIHDLGEAIITDLPLSAQKYLNKEEAEAKALKDVLPEYTELFEEYSKALTLEGQLVKIADKLDMIIQAYEYELSGAKNLSEFWNALEDLEKLEISRYLREIIEEVRRLKDDH | soluble |
| AHHHHHHGSILEKAREILEEHQLCNHCLGRLFGKLGKGTNEERGRAIRLLLSMETGKEYKEPEKCELCGGVFNNLDKFAELCIKAAEGIEFETFWVGSRFPEEIEKKEEEIWRKFRVVSGEKITKEFNRELGKVIAVRYGKTPVKERPDVVFIVEPFSEKVELQVNPIYVAGRYRKLIRGIPQTPAPGFKESIATIICRAFKKHFHGKCIFKGAGREDVDVRMLGNGRPFVVEIKRPRKRKVNLKDIEEEINQSGKVEVLNLRFITPEEAERILTTRHRKVYEAIVYVKDGITKEEVEKVVKSLKNAEIKQRTPRRVLNSRADLVRVRKVYDVKGELIDDKHFKLRLVTDGGLYIKELISGDRGRTTPSVSEILGKEAWCEILDVLEVLDDVEGDN | soluble |
| AHHHHHHGSIWEEILNFEPYRAVEGNYRIWLDKNESPYDLPPQLKEEILEELKRIEFNRYPHITSDPLREALAEFYGLKKENIAVGNGSDELINYLVKMFKGKYIVVTSPTFGMYSFFAKLHGIPVKDIPLKEDFTIDGERIAEEGKAASAIFIASPNNPTGNSQPENEVLKVLDSGRVVILDEAYSEFSGKSFIPKISEYENLVILRTFSKAFGLAGIRCGYMIANEKIIDALYRILPPYNLNSLTMTVAIKMLEHYDIVKRRIKLIVKERERIRREFIEYSYPSEANFLLMKLDAYDYLLKKGIVVRKLSGRLEGHIRVTIGKKWENDELIKALKEFLEECRCG | soluble |
| AHHHHHHGSKIATIVGARPQFIKMAPVSRELRKYFEEVVIHTGQHYDYEMDRIFFEQLNIPEPDYNLGVGSGSHGYQIGEMLKKIEEVLIKEKPDLVMVFGDTNSTLAGALAAAKLKIKVAHVEAGLRSFDKSMPEEINRILTDHVSDYLFAPTETAVKNLYNEGIRNGVYLTGDVMLDALLYNVKIAERCSEILNKLGLKPKEFCLATVHRAENTDNLERLKNIIDAFVECKETIVFPVHPRTEKVLKAYGLYDSLKKAENVILIKPVGYLDMLMLEKNAKKILTDSGGVQKEAYFLKVPCITLRERTEWVETVEDGWNVLVGADKEKILRAVREFEPSGETYTYKFGDGRASEKIAEVIKNVDR | not soluble |
| AHHHHHHGSKKRLPASRVYIKDILEGYFVKSEGDFEPNYLITKDARKIYRAKIVGTVIREPLIAEDETYGKFQIDDGTGVIWVLGFRDDTKFAKLVKKGDLVQVIGKIAEWRDDKQILVEGVAKVHPNMWILHRYETLKEKIEHARKAKIAFEIYNTYGITAKSKVIAKNKGVPEELLETIDELYGIIMEEKAMEEPVEELIEEEITEEGKEENEILEKVKQEILEILRSKKIAVSRKYILKKLGEKYDEETIEDAIAELLADGEIYEPETGYYKLL | not soluble |
| AHHHHHHGSKLDDSFLTLFPEEDKVYEVLLSTKSNFTPIGVRRQGRVLKFRIFEGRSFRDLEECNYAIIQVVDDTELLAGLAYNLDVKFDVTQGIKVPIRRIEGYPWVEGEVKCRIVKVKDSIGESIAKDCTLTPIYIGIEKRVPRPISRADNVLLELAVLGTRLIVKKKRGLQIKDVAQKIEELYELYRKLGGKSEIAGKIMDILRKHYL | soluble |
| AHHHHHHGSKLMEVSPLFPCIFLRRVNRFVGLVRIKERIERALITNTGRLNEFMIPGRIGYCTPKAGGKTRYILLGFEDHGKIAIIDTRLQGKAFEKIIEKELLPELEGCRIIKREPRVGESRLDYLLECSKGEIFVETKSAVLREGEYAMYPDCPSVRGQRHIKELIKLARDGKRAMIVFIGALPNVSKFKPYKKGDPKIAELLKEALEAGVEIRALGLHMELSGEIIYRGELGVEI | soluble |

— the DeepSol protein solubility set
